PMC10322983, “Intramolecular interaction kinetically regulates fibril formation by human and mouse α-synuclein” (Scientific Reports, 2023)

Molecular target: the molecule itself
Experiment: thioflavin T fluorescence of fibril formation; monomeric αS (50 μM in Fig. 5; 20–200 μM in Fig. 4) with 10 μM ThT, 96-well plates with Teflon polybeads, shaking at 500 rpm, 37 °C (other temperatures in Fig. 6), PBS

B1: m-αS Δ104–140 (domain or fragment)
chain: not shown
binding result: binds
